The source of these data is patent publication US20210371529A1 (Innovent, published 2021).

For experiment [1], the target named is T1, human LAG-3-His (human, UniProt P18627 23-450).
T1 construct: Bought antigen (ArcoBiosystems), 100 nM in solution in the ForteBio assay; also called human LAG-3 antigen (ArcoBiosystems); hLAG-3; not shown: His tag
T1 sequence (looked up): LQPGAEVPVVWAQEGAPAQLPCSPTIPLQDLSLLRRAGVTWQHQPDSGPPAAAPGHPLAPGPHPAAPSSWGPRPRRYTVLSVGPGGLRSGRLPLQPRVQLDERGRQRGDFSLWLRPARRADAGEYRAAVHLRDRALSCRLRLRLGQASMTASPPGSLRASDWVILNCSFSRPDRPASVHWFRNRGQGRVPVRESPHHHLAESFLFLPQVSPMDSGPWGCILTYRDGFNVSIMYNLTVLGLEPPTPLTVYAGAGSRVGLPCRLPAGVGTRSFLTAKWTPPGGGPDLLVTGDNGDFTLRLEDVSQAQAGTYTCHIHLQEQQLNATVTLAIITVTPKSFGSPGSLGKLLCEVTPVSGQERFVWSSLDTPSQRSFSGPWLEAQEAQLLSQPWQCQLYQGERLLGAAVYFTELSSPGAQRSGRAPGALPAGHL
The experiment in a line: BLI (ForteBio), antibody on AHQ tip, human LAG-3-His 100 nM in solution. The method, then:
(§1) The purified antibody obtained as described above was loaded on-line onto an AHQ sensor (ForteBio) for ForteBio affinity assay. The sensor with the loaded antibody was then exposed to 100 nM of a human LAG-3 antigen (ArcoBiosystems) for 5 minutes before transferring the sensor to the assay buffer for dissociation for 5 minutes for dissociation rate measurement. Kinetic analysis was performed using a 1:1 binding model.

For experiment [2], the target named is T1, human LAG-3-His. Description: BLI (ForteBio), antibody on AHQ tip, human LAG-3-His 100 nM in solution, univalent. The method, then: as §1
Experiment [3] addresses T2, human LAG-3 overexpressed on HEK293 cells (human, UniProt P18627 23-525).
T2 construct: whole, on cells; also called 293-hLAG-3 cells; hLAG-3 on the cell surface
T2 sequence (looked up): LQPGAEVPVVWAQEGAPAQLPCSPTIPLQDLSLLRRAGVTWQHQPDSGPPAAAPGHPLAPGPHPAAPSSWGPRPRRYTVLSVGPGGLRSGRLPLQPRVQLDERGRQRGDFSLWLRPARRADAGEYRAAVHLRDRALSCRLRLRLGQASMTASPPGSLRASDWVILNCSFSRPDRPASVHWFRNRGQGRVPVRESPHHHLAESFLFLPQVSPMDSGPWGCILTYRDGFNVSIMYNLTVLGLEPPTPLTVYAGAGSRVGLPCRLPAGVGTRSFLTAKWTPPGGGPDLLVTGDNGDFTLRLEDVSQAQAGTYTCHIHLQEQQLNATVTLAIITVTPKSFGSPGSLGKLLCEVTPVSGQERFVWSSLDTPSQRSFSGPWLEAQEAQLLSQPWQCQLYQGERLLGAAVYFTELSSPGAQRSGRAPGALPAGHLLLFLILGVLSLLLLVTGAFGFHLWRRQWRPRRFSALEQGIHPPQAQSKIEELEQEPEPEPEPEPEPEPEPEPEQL
Description: flow cytometry on 293-hLAG-3 cells, MFI curve. The method, then: The binding of the 4 exemplary antibodies of the invention described above to human LAG-3 was measured in a flow cytometry-based assay. 293 cells (293-hLAG-3 cells) over-expressing human LAG-3 were generated by transfecting human embryonic kidney 293 cells (Invitrogen) with pCHO1.0 vectors (Invitrogen) carrying human LAG-3 cDNA (Sino Biological) cloned into multiple cloning sites (MCSs). 293-hLAG-3 cells (0.2×10⁶ cells) were mixed with different concentrations of antibodies (ADI-26789, ADI-26869 and reference 25F7) prepared as described above (the antibodies were serially three-fold diluted from a maximum concentration of 500 nM in PBS containing 0.1% bovine serum albumin (BSA) until the 8th concentration). The cells were incubated on ice for 30 min. The cells were then washed at least twice prior to addition of a secondary antibody (a PE-labeled goat anti-human IgG antibody, Southern Biotech, final concentration […]) diluted in 1:100, and incubated on ice (protected from light) for 30 minutes. The cells were washed at least twice and analyzed by flow cytometry. The flow cytometry assay was performed on an Accuri C6 system (BD Biosciences), and a concentration-dependent curve was fitted with GraphPad according to the mean fluorescence intensity (MFI).

The next experiment deals with T3, human PD-L1 (human, UniProt Q9NZQ7 19-238).
T3 construct: Bought antigen; also called human PD-L1 antigen (Acrobiosystems)
Description: BLI (ForteBio), antibody loaded on sensor, human PD-L1 in solution. The method, then:
The equilibrium dissociation constant (KD) for binding of the anti-PD-L1 antibody (HZ3266-IgG1N297A) to human PD-L1 was determined by biological optical interferometry (ForteBio). A ForteBio affinity assay of prior art was performed (Estep, P., et al, High throughput solution based measurement of antibody-antigen affinity and epitope binning. MAbs, 2013.5(2):270-8).
SD buffer, antibodies, and antigens (including human PD-L1, all purchased from Acrobiosystems) each of 100 μL were added to 96-well black polystyrene half area microplates (Greiner, 675076). The sensors were arranged according to the positions of the samples. The instrument settings were as follows: the operation procedures were Baseline, Loading ˜1 nm, Baseline, Association, and Dissociation. The run time of each procedure was dependent on the rates of association and dissociation. The rotation speed was 400 rpm, and the temperature was 30° C. The KD values were analyzed by ForteBio analysis software.

In experiment [4] the target is T4, mouse LAG-3 overexpressed on CHO cells (mouse, UniProt Q61790 24-521).
T4 construct: whole, on cells; also called CHO-mLAG-3 cells; mouse LAG-3 on the cell surface
T4 sequence (looked up): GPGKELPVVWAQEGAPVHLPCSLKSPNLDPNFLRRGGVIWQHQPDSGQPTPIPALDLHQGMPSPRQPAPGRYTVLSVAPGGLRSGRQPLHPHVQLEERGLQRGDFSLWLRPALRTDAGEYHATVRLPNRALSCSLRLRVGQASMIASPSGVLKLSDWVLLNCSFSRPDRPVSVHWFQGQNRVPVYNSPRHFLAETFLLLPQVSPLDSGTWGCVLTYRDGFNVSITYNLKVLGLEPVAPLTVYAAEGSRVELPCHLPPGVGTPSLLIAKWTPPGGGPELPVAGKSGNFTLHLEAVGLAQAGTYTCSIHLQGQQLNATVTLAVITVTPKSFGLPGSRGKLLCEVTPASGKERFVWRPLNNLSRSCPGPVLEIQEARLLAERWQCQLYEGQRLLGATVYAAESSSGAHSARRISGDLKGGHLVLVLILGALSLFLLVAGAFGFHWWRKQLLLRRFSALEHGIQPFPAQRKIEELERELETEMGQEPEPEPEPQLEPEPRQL
The experiment in a line: flow cytometry (MFI) on CHO cells overexpressing mouse LAG-3; fit value from the EC50 table on the sheet for a flat curve (see non_binding); table has no unit of its own (concentration axis in nM).

T3 sequence (Q9NZQ7 19-238 limits assumed): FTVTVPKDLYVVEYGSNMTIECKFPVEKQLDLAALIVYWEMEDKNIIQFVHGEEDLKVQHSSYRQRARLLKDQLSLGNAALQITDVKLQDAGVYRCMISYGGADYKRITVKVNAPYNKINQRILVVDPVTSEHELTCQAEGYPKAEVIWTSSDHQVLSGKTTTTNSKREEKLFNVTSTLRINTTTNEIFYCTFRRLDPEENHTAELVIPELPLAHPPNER

B1: ADI-26789 (antibody, human IgG4 S228P, kappa, F234A L235A, V domains shown)
VH: EVQLVESGGGLVQPGRSLRLSCAASGFTFDDYAMHWVRQAPGKGLEWVSGISWNSGDIGYADSVKGRFTISRDNAKNSLYLQMNSLRAEDTALYYCAKGGYDGSYYGMDVWGQGTTVTVSS
VL: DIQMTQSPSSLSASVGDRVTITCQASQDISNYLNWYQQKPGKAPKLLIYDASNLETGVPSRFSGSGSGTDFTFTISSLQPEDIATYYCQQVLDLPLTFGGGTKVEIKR
notes: Fully human antibody from yeast display; IgG4 heavy chain constant region with kappa light chain; also called anti-human LAG-3 antibody ADI-26789; parent antibody
In the experiment with human LAG-3-His [1], B1 showed a koff of 0.00389 s⁻¹ and a kon of 212000 M⁻¹ s⁻¹. The same molecule came in with a dissociation constant (Kd) with human LAG-3-His [2] of 18.3 nM. The EC50 in experiment [3] was determined as 2.14 nM.

B2: HZ3266-IgG1N297A (antibody, V domains shown)
VH: EVQLVQSGAEVKKPGATVKISCTASGFNIEDTYIHWVQQAPGQGLEWIGRIDPANDDTKYAPKFQGRATITADTSTDTAYMELSSLRSEDTAVYYCGRGLGRWFAYWGQGTLVTVSS
VL: GIVMTQSPDSLAVSLGERATINCKASQDVINAVAWYQQKPGQSPKLLIYSASNRYTGVPDRFSGSGSGTDFTLTISSLQAEDLAVYYCQQHYSPPLTFGGGTKVEIKR
notes: also called anti-PD-L1 antibody (HZ3266-IgG1N297A)
B2: the dissociation constant (Kd) in the experiment with human PD-L1 came out at 0.724 nM.

B3: 25F7 (antibody, V domains shown)
VH: QVQLQQWGAGLLKPSETLSLTCAVYGGSFSDYYWNWIRQPPGKGLEWIGEINHNGNTNSNPSLKSRVTLSLDTSKNQFSLKLRSVTAADTAVYYCAFGYSDYEYNWFDPWGQGTLVTVSS
VL: EIVLTQSPATLSLSPGERATLSCRASQSISSYLAWYQQKPGQAPRLLIYDASNRATGIPARFSGSGSGTDFTLTISSLEPEDFAVYYCQQRSNWPLTFGQGTNLEIK
As for B3, it took 0.857 nM to reach a half-maximal effect in experiment [4] (EC50).

B4: BAP050 (antibody, V domains shown)
VH: QIQLVQSGPELKKPGETVKISCKASGFTLTNYGMNWVRQTPGKGLKWMGWINTDTGEPTYADDFKGRFAFSLETSASTASLQINNLKNADTATYFCARNPPYYYGTNNAEAMDYWGQGTAVTVSS
VL: DIQMTQTTSSLSASLGDRVTISCSSSQDISNYLNWYQQKPDGTVKVLIYYTSTLHLGVPSRFSGSGSGTDYSLTISNLELEDIATYYCQQYYNLPWTFGGGTKLEIK
B4 yielded a koff with human LAG-3-His [1] of 0.0002 s⁻¹. Also, in the experiment with human LAG-3-His [1], the on-rate constant (kon) worked out at 237000 M⁻¹ s⁻¹. Moreover, the EC50 in experiment [4] is about 0.7 nM; in experiment [3], 1.41 nM. Besides, binding with human LAG-3-His [2] was put at a Kd of 0.844 nM.

B5: ADI-26869 (antibody, human IgG4 S228P, kappa, F234A L235A, V domains shown)
VH: QLQLQESGPGLVKPSETLSLTCTVSGGSISSSDYYWGWIRQPPGKGLEWIGSIYYSGSTYYNPSLKSRVTISVDTSKNQFSLKLSSVTAADTAVYYCARVRTWDAAFDIWGQGTMVTVSS
VL: DIQMTQSPSSLSASVGDRVTITCQASQDISNYLNWYQQKPGKAPKLLIYDASNLETGVPSRFSGSGSGTDFTFTISSLQPEDIATYYCQQVHALPPWTFGGGTKVEIKR
notes: Fully human antibody from yeast display; IgG4 heavy chain constant region with kappa light chain; expressed in HEK293 cells; also called anti-human LAG-3 antibody ADI-26869; parent antibody
Consider B5, for which, in the experiment with human LAG-3-His [1], the koff turned out to be 0.00385 s⁻¹ and the on-rate constant (kon) turned out to be 488000 M⁻¹ s⁻¹. In the experiment with human LAG-3-His [2], this molecule gave a Kd of 7.88 nM. Further, the EC50 in experiment [3] came to 2.91 nM.
